Measurements: patent US20200317817A1 (XOMA US, published 2020)
Substitutions are numbered along the chain they refer to.

T1: recombinant N-terminal extracellular domain of the human PTH1R receptor (human, UniProt Q03431 27-188, limits assumed)
T1 construct: domain: N-terminal extracellular domain; Bought reagent; also called N-ECD PTH1R; PTH1R N-terminal ECD
T1 sequence (looked up): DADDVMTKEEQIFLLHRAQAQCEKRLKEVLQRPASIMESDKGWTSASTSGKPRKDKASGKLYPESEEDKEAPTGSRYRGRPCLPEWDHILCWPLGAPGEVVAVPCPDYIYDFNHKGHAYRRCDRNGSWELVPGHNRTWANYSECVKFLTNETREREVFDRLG

T2: mouse PTH1R overexpressed on CHO cells (mouse, UniProt P41593 27-591)
T2 sequence (looked up): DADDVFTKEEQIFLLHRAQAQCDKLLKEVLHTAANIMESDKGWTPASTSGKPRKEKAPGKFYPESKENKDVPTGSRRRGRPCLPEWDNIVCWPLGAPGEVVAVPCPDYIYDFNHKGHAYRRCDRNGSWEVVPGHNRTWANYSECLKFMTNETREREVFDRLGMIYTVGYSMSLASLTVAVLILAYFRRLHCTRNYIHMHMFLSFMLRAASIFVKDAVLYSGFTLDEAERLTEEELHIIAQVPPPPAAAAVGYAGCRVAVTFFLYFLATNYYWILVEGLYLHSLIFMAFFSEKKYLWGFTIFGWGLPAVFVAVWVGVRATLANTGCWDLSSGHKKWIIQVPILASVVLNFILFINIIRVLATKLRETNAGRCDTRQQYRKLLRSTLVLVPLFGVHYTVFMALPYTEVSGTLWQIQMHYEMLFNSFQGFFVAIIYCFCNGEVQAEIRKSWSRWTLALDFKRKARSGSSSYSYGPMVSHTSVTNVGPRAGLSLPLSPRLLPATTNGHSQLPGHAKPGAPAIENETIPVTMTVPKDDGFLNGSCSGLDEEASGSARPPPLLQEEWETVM

T3: human PTH1R overexpressed on CHO cells (human, UniProt Q03431 27-593)
T3 sequence (looked up): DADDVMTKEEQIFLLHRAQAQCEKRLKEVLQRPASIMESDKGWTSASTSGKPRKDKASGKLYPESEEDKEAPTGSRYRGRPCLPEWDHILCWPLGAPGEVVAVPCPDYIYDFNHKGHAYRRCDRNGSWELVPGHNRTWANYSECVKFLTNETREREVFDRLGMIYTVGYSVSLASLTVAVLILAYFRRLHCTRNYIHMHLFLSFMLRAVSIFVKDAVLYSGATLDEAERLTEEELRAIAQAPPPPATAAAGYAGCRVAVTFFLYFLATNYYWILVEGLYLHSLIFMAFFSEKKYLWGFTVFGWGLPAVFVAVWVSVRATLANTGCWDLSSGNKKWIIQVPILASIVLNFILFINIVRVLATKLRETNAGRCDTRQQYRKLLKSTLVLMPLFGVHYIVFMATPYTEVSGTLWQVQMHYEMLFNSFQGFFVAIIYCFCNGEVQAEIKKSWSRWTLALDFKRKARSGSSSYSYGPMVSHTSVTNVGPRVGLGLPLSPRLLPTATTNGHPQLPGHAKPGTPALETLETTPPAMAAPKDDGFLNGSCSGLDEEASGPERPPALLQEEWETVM

T4: human PTH1R on Saos-2 cells (endogenous) (human, UniProt Q03431 27-593)
T4 sequence (looked up): T3 sequence (looked up)

T5: rat PTH1R on UMR106 cells (rat, UniProt P25961 27-591)
T5 sequence (looked up): T2 sequence (looked up) with P58S, L497P, I518T, N520T, I523L, T528A

B1: XPA.85.326 (antibody, V domains shown)
VH: QMQLVQSGAEVKKPGSSVKVSCKASGGTFSSYAISWVRQAPGQGLEWMGGIIPIFGTANYAQKFQGRVTITADESTSTAYMELSSLRSEDTAVYYCARGYVVARLWGQGTLVTVSS
VL: DIVMTQTPLSLSVTPGQPASISCKSSQSLLHIDGLTYLYWYLQKPGQPPQLLIYEVSHRFSGVSDKFSGSGSGTDFTLTISRVEAEDVGVYYCMQSLHLPITFGQGTRLEIK
notes: Light-chain-shuffled variant of XPA.85.012
B2: XPA.85.347 (antibody, V domains shown)
VH: B1 VH
VL: DIVMTQTPLSLSVTPGQPASISCKSSQSLFHDHGRTHLSWYLQKPGQPPQLLIFEASNRFSGVPDRFSGSGSGTDFTLKISRVEAEDVGVYYCMQGIHLPPAFGGGTKLEIK
notes: as for B1
B3: XPA.85.345 (antibody, V domains shown)
VH: B1 VH
VL: ETTLTQSPAFMSASVGDRVTITCQASQDINNFLNWYQQKPGKAPKFLIYDASNLEKGVPSRFSGRGSGTEFTLTISSLQPEDIATYYCQQYRDFPLTFGQGTRLEIK
notes: as for B1
B4: XPA.85.331 (antibody, V domains shown)
VH: B1 VH
VL: DVVMTQSPLSLPVTPGEPASISCRSSQSLLHIDGFNYLQWYLQKPGQSPQLLVHLGSFRASGVPDRFSGSGSGTDFTLEISRVEAEDVGLYYCMQGLQTPPTFGPGTKVEIK
notes: as for B1
B5: XPA.85.288 (antibody, V domains shown)
VH: B1 VH
VL: B1 VL with I2V, L35K, P45S, P48S, H58N, S64P, K66T, T79K, L99F
notes: also called Ab288
B6: XPA.85.346 (antibody, V domains shown)
VH: B1 VH
VL: B1 VL with S22T, L35K, Y41F, H58N, S64P, K66R, T79K, V90L
notes: as for B1
B7: XPA.85.342 (antibody, V domains shown)
VH: B1 VH
VL: B3 VL with A9T
notes: as for B1
B8: XPA.85.327 (antibody, V domains shown)
VH: B1 VH
VL: B1 VL with S22T, L35N, K44R, V56I, H58N, S64P, K66R, T79K, L99F
notes: Light-chain-shuffled variant of XPA.85.012; also called XPA.327

How the values were obtained:
[1] = biological target: T1, recombinant N-terminal extracellular …; test: SPR, IgG captured, ECD injected
Procedure: An anti-human IgG-Fc CMS sensor chip (GE Healthcare) was prepared using standard amine coupling as described by the manufacturer's protocol for the capture Ab on a BIACORE 4000 system (GE Healthcare). Briefly, the chip surface was activated with a 10 minute injection at 10 μL/minute of a freshly mixed 1:1 solution of 0.1 M N-Hydroxysuccinimide (NHS) and 0.4 M 1-Ethyl-3-(3-dimethylaminopropyl) carbodiimide hydrochloride (EDC). Following the activation injection, 15 ug/mL anti-human IgG-Fc antibody in acetate pH 4.5 was injected at 10 μL/minute for 10 minutes to achieve a high density capture surface. 7 minutes of 1M Ethanolamine hydrochloride-NaOH pH 8.5 was injected to block the surface. The NHS, EDC, and Ethanolamine used were from the BIACORE Amine Coupling Kit.
Kinetic Analysis was performed using HBS-EP+(Teknova) with 2.5 mg/mL BSA (Sigma Aldrich, St. Louis Mo.). Antibodies were diluted to 0.5 μg/mL and captured to achieve a surface density of 100 to 200 RU. […] Injections were performed at 30 μL/minute for 240 seconds with a 360 second dissociation time. Regeneration was then performed with one 60 second injection 3M MgCl.
The data were analyzed using BIACORE 4000 Evaluation Software and was double referenced by subtracting both the blank flow cell data and the averaged bracketing blank injections. The data was fit by simultaneously fitting the an off-rate (kd) and on-rate (kₐ), and calculating the KD as KD=kd/kₐ.

[2] = biological target: T2, mouse PTH1R overexpressed on CHO cells; test: cell-based or functional assay
[3] = biological target: T3, human PTH1R overexpressed on CHO cells; test: cell-based or functional assay
[4] = biological target: T4, human PTH1R on Saos-2 cells (endogenous); test: cell-based or functional assay
[5] = biological target: T5, rat PTH1R on UMR106 cells; test: cell-based or functional assay
[6] = biological target: T4, human PTH1R on Saos-2 cells (endogenous); test: cell-based or functional assay; remark: listed apart in the source

| Binder | Kd [1] [nM] | koff [1] [s⁻¹] | kon [1] [M⁻¹ s⁻¹] | IC50, inhibition of PTHrP(1-34)-induced cAMP accumulation [2] [nM] | IC50, inhibition of PTH(1-34)-induced cAMP accumulation [3] [nM] | IC50, inhibition of PTHrP(1-34)-induced cAMP accumulation [3] [nM] | fold shift of the PTH (1-34) dose response, M-CSF secretion by Saos-2 cells [4] [fold] | % inhibition of cAMP accumulation at 1 µM PTH(1-34), 267 nM IgG [5] [%] | % inhibition of cAMP accumulation at 1 µM PTHrP(1-34), 267 nM IgG [5] [%] | % inhibition of cAMP accumulation at 1 µM PTH(1-34), 267 nM IgG [6] [%] | % inhibition of cAMP accumulation at 1 µM PTHrP(1-34), 267 nM IgG [6] [%] | IC50, inhibition of PTH(1-34)-induced cAMP accumulation (curve does not reach a plateau) [3] [nM] |
| --- | --- | --- | --- | --- | --- | --- | --- | --- | --- | --- | --- | --- |
| B1 | 0.19 | 7.3e-05 | 380000 |  |  |  |  |  |  |  |  |  |
| B2 | 0.87 | 0.00077 | 880000 | 2.9 |  |  |  |  |  |  |  |  |
| B3 | 0.56 | 0.0013 | 2.3e+06 | 2.53 | 14.2 | 12.1 |  |  |  |  |  |  |
| B4 | 0.22 | 0.00035 | 1.6e+06 | 3.2 | 14.2 | 8.86 | > 10 | 42 | 37 | 67 | 72 |  |
| B5 | 0.18 | 0.00014 | 780000 |  |  |  | > 10 | 73 | 45 | 79 | 79 |  |
| B6 | 0.31 | 0.00014 | 450000 | 3.57 |  | 14.6 | > 10 | 40 | 31 | 72 | 75 | 29.9 |
| B7 | 0.52 | 0.0012 | 2.3e+06 |  |  |  |  | 6 | 0 | 0 | 17 |  |
| B8 | 0.15 | 0.00011 | 740000 |  |  |  | > 10 |  |  |  |  |  |
